In assay [1] the target is endogenous Tctex-1 protein of PC3 human prostate cancer cells (human) (UniProt P63172). Briefly: cell-based or functional assay.
Assay [2] has as its target V5-tagged Tctex-1 (V5-Tctex-1 fusion protein), expressed from pcDNA3.2/V5/GW/D-TOPO (human) (UniProt P63172). In words: cell-based or functional assay.

endogenous Tctex-1 protein of PC3 human prostate cancer cells (human), sequence (P63172 whole entry, the tested form may be a part): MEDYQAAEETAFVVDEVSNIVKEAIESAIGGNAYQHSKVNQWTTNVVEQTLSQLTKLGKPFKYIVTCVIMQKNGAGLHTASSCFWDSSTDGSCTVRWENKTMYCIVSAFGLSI
V5-tagged Tctex-1 (V5-Tctex-1 fusion protein), expressed from pcDNA3.2/V5/GW/D-TOPO (human), sequence (P63172 whole entry, the tested form may be a part): as above

Consider “REIC/Dkk-3 protein overexpressed from adenovirus REIC/Dkk-3 (Ad-REIC) in PC3 cells (from UniProt Q9UBP4 22-350)”, for which, in assay [1], the apoptosis incidence (Hoechst 33342) in PC3 cells treated with Ad-REIC, group treated with shRNA-Tctex-1 turned out to be 15% and the apoptosis incidence (Hoechst 33342) in PC3 cells treated with Ad-REIC, group treated with the GFP plasmid was found to be 30%. The apoptosis incidence (Hoechst 33342) in PC3 cells treated with Ad-REIC, group treated with the Tctex-1 expression plasmid in assay [2] is 75%.

These data come from patent US20130267025A1.
